Experimental findings from IntAct's records for PubMed 7536190 are described below.

B1: Tumor necrosis factor receptor superfamily member 6 (Mus musculus), P25446 (parent)
chain: MLWIWAVLPLVLAGSQLRVHTQGTNSISESLKLRRRVRETDKNCSEGLYQGGPFCCQPCQPGKKKVEDCKMNGGTPTCAPCTEGKEYMDKNHYADKCRRCTLCDEEHGLEVETNCTLTQNTKCKCKPDFYCDSPGCEHCVRCASCEHGTLEPCTATSNTNCRKQSPRNRLWLLTILVLLIPLVFIYRKYRKRKCWKRRQDDPESRTSSRETIPMNASNLSLSKYIPRIAEDMTIQEAKKFARENNIKEGKIDEIMHDSIQDTAEQKVQLLLCWYQSHGKSDAYQDLIKGLKKAECRRTLDKFQDMVQKDLGKSTPDTGNENEGQCLE

The variants in the first test derive from B1. The following applies: with fadd_human FADD.
As for I225D, the “effect of a mutation on the interaction” value was “decreasing interaction”.

In the next test the parent is B1. The following applies: with tnr6_human FAS.
On to I225D, for which the “effect of a mutation on the interaction” value is “decreasing interaction”.
